Experimental data from paper PMC2719692.

Target: T1, eEF1α (GST fusion) (rat) (UniProt P62630)
T1 sequence: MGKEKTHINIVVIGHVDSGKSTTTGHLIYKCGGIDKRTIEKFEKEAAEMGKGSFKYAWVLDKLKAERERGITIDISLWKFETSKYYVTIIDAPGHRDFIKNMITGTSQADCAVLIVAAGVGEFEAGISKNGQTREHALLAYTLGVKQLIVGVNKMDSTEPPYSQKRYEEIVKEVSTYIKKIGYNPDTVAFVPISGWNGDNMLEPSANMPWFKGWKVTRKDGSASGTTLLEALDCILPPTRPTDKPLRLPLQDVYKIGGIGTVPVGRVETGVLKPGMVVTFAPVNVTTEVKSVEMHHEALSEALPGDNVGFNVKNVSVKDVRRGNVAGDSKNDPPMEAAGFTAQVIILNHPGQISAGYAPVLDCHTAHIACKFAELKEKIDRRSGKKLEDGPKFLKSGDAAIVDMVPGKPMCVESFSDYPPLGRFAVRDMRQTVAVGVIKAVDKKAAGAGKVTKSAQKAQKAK
Experiment: EMSA
Settings: EMSA: 40 mM NaCl, 5 mM MgCl2, 30 mM Tris-HCl pH 7.6, 2 mM DTT, protease inhibitors, 22 °C 15 min, then RNase T1 (described for CHO extract); 12 fmol RNA in …

GGAGUGACGAACAGUGCUGCUGCCCUCAGGUGUAAAUAAUUUCCGGACCAACUCAGAGUCUUGCCGUACACCUCCACCCAGUUUACUAAACCCCGUUUUCUACCGAGCAUGUG [MT-111 (MT-1 3′UTR nt 1-111)]
binding: binds
